The test concerns the target HER2 (human (endogenous in BT-474, SK-BR-3, MDA-MB-361)) (UniProt P04626). Briefly: flow cytometry on cells; cell-based saturation assay: 3x10^5 BT-474 cells with increasing concentration of DyLight-488-labeled Affibody in PBS with 2% FBS, on ice, one hour; non-specific binding subtracted; three independent experiments. On the technique in general: Flow cytometry measures light scatter and fluorescence of single cells or particles in a stream.

Experimental findings from publication PMC3401287 are described below.

In general, Kd refers to the equilibrium constant for the complex coming apart. “Z_(HER2)-GS-Cys labeled with DyLight-488 (designed binder)” registered a Kd of 3.66 nM.
